The record followed here is paper PMC5623874 (Frontiers in Immunology, 2017).

Series [1] has as its target T1, Marburgvirus (Marburg Musoke) nucleoprotein, polymeric (Marburg virus, Musoke, UniProt P27588).
T1 construct: source: HEK 293T, transient transfection, purified (CsCl gradient)
The series can be described thus: ELISA. Conditions: both partners purified. (In general: ELISA stands for enzyme-linked immunosorbent assay.)

Series [2] deals with the molecule itself. As to the kind of experiment: transmission electron microscopy of HA-NP and sdAb mixtures.

B1: anti-MARV NP sdAb B monomer (pecan126) (VHH)
VHH: KVQLQESGGGLVQAGGSLRLSCAASGGTFSINTLGWYRRAPGKEREFVARISSGGITRYADSVKGRFTISRDNGKNTVYLDMNSLKPEDTAVYYCMYRNWGGGLDVYWGQGTQVTVSS
notes: also called anti-MARV sdAb B; source: E. coli HBV88 periplasm, purified (IMAC, gel filtration)
Take B1: the binding result in series [1] is reported as “binds”.

B2: HA-tagged Marburgvirus (Marburg Musoke) nucleoprotein, polymeric (natural protein)
chain: MDLHSLLELGTKPTAPHVRNKKVILFDTNHQVSICNQIIDAINSGIDLGDLLEGGLLTLCVEHYYNSDKDKFNTSPVAKYLRDAGYEFDVIKNADATRFLDVSPNEPHYSPLILALKTLESTESQRGRIGLFLSFCSLFLPKLVVGDRASIEKALRQVTVHQEQGIVTYPNHWLTTGHMKVIFGILRSSFILKFVLIHQGVNLVTGHDAYDSIISNSVGQTRFSGLLIVKTVLEFILQKTDSGVTLHPLVRTSKVKNEVASFKQALSNLARHGEYAPFARVLNLSGINNLEHGLYPQLSAIALGVATAHGSTLAGVNVGEQYQQLREAAHDAEVKLQRRHEHQEIQAIAEDDEERKILEQFHLQKTEITHSQTLAVLSQKREKLARLAAEIENNIVEDQGFKQSQNRVSQSFLNDPTPVEVTVQARPMNRPTALPPPVDDKIEHESTEDSSSSSSFVDLNDPFALLNEDEDTLDDSVMIPGTTSREFQGIPEPPRQSQDLNNSQGKQEDESTNRIKKQFLRYQELPPVQEDDESEYTTDSQESIDQPGSDNEQGVDLPPPPLYAQEKRQDPIQHPAANPQDPFGSIGDVNGDILEPIRSPSSPSAPQEDTRMREAYELSPDFTNDEDNQQNWPQRVVTKKGRTFLYPNDLLQTNPPESLITALVEEYQNPVSAKELQADWPDMSFDERRHVAMNL
notes: also called MARV HA-NP; HA-NP
In the case of B2, the binding result in series [2] was “binds”.

B3: anti-MARV NP sdAb C monomer (pecan126) (VHH)
VHH: KVQLQESGGGLVQVGGSLRLSCKASGFTFRSSAMGWYRRAPGKQRELVASLTTTGTADYGDFVKGRFTISRDNAENTVDLHMNSLKPEDTAVYYCHEDPYGMESLRYWGQGTQVTVSS
notes: also called anti-MARV sdAb C; source: E. coli HBV88 periplasm, purified (IMAC, gel filtration)
With B3, the binding result in series [1] is on record as “binds”.

B4: anti-MARV NP sdAb A monomer (pecan126) (VHH)
VHH: EVKLQESGGGLVQAGESLRLSCAVPPEVFDIRTVAWYRQVPLGKGRELLSSITPWNKTTYEDSVKDRFTISRDNAKYTVYLQMNDLKPEDTAVYYCAQGWGIASMRYWGQGTQVTVSS
notes: also called anti-MARV sdAb A; source: E. coli HBV88 periplasm, purified (IMAC, gel filtration)
B4: the binding result in series [1] was “binds”.
